For this experiment, the target named is DP71L-Flag (Flag-tagged ASFV DP71L), expressed in HEK293T cells. The note with it: parent: est. 0.52; read off a plot.

For “STING-Strep (Strep-tagged STING) (from UniProt Q86WV6) L374A”, the response (Relative IntDEN to β-actin) was 0.14.

Take “STING-Strep (Strep-tagged STING) (from UniProt Q86WV6) R375A”: the response (Relative IntDEN to β-actin) is 0.04.

(Values after paper PMC11796124.)
